The target of experiment [1] is T1, h/m apical domain chimera (SEQ ID NO:112) (human/mouse chimera).
T1 construct: also called chimeric TfR1 consisting of human apical domain grafted on mouse TfR1 ectodomain
T1 chain: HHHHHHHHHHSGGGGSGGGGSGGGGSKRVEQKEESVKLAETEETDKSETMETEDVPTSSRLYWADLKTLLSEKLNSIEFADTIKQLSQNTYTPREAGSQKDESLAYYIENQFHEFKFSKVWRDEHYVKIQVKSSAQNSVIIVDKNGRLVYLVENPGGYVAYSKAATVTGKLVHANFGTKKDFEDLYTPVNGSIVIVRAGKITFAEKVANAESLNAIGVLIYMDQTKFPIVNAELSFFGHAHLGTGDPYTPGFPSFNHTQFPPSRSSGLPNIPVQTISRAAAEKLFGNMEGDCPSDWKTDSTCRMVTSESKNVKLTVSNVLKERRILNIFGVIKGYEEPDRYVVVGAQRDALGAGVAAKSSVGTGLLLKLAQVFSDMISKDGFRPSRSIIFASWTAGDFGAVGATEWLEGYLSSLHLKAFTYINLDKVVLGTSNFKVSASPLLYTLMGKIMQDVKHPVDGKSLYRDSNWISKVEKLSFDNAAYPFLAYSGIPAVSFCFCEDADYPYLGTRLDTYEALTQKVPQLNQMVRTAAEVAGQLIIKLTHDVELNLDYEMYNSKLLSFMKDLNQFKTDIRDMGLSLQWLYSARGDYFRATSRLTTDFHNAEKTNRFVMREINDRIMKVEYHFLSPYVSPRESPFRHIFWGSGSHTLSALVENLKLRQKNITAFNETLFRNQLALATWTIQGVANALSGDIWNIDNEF
Description: indirect ELISA: plate coated with 1 µg/ml h/m apical domain chimera, mouse IgG titrated, anti-mouse IgG-HRP; x axis printed as 'TfR (ng/ml)'. As to the method:
Plasma samples serially diluted from a starting dilution of 1/450 or hybridoma supernatants diluted 1/2 were added to the plates (50 μl/well; dilution buffer: PBS with 0.1% BSA and 0.05% TWEEN®-20) and incubated for 2 h at room temperature and then the plates were washed four times. […] After another wash (as above), 50 μl/well TMB substrate (K-Blue® Aqueous, Neogen) was added, and the reaction was stopped after 10-15 min with 50 μl/well of 0.5 M H₂SO₄. The optical density at 450 nm was read using a plate reader (Tecan). The endpoint titers were defined as the dilution above the average of the blank wells (background) plus 3 standard deviations of the blank wells.
In the ELISA experiment, human, mouse or three different chimeric TfR1 receptors were used to coat ELISA plates (FIGS. 30A-30E). The ELISA protocol was slightly modified as follows from the indirect ELISA described in Example 15. […] The coated plates were then blocked. Dilution series of mouse IgG of the analyzed antibodies were prepared in PBS and incubated on the ELISA plates. Unbound antibodies were then washed off before incubating wells with a HRP-conjugated secondary, anti-mouse-IgG for 1 h. Plates were then washed again before addition of HRP substrate TMB for development and detection of antibody binding to the wells. TMB development was stopped by adding 0.5 M H₂SO₄ to the wells and ELISA responses measured as the OD at 450 nm in an ELISA plate reader.
(ELISA stands for enzyme-linked immunosorbent assay.)

The target in experiment [2] is T2, AβpE3-40 monomer (UniProt P05067 674-711, pyroglutamate at position 3 (N-terminal residue)).
T2 construct: range 3-40 (Aβ numbering); Synthetic peptide (Bachem/Anaspec), verified monomeric by SEC; also called monomeric AβpE3-40
T2 sequence (P05067 674-711): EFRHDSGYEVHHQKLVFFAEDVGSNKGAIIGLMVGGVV
The experiment can be described thus: inhibition ELISA, antigen titrated in solution, AβpE3-40 coat. As to the method:
(§1) The tested molecules were incubated at a fixed concentration (0.1 μg/ml) with titrating concentrations of the different AβpE3 antigens. After incubation for 45 min at 900 rpm to reach equilibrium, the samples were added to a blocked and washed ELISA plate with an AβpE3-40 coat (0.5 μM). The samples were incubated on the plate for 25 min without shaking followed by washing, incubation with detection antibody, another washing step and finally incubation with alkaline phosphatase substrate.

For experiment [3], the target named is T3, AβpE3-42 protofibrils (UniProt P05067 674-713, pyroglutamate at position 3 (N-terminal residue)).
T3 construct: range 3-42 (Aβ numbering); Soluble aggregates made from AβpE3-42 peptide, purified in the void peak of SEC; also called AβpE3-42 PF
T3 sequence (P05067 674-713): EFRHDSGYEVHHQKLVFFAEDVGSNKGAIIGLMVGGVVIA
The description is as above. As to the method: as §1

The target of experiment [4] is T2, AβpE3-40 monomer. The experiment can be described thus: SPR, antibody immobilised, monomer injected, 1:1 fit. As to the method: Single cycle kinetics with the binding molecules immobilized on a CM5 chip was used to measure binding to the AβpE3-40 monomer. For the measurements, 5 μg/ml of analyte binding molecule was immobilized on the chip. […] Regeneration of the surface between cycles was done by injecting 30 μl 3 M MgCl₂ (Cytiva, cat. No. 29234600). The binding data was fitted to a 1:1 interaction model.
(In SPR one partner is held on a chip, and binding of the other changes the refractive index at the surface.)

Experiment [5] deals with T4, truncated hTfR1 of SEQ ID NO:122 (human, UniProt P02786 122-760).
T4 construct: also called human TfR1; Human TfR1
T4 sequence (P02786 other isoform, or with tags, fused parts or gaps limits assumed): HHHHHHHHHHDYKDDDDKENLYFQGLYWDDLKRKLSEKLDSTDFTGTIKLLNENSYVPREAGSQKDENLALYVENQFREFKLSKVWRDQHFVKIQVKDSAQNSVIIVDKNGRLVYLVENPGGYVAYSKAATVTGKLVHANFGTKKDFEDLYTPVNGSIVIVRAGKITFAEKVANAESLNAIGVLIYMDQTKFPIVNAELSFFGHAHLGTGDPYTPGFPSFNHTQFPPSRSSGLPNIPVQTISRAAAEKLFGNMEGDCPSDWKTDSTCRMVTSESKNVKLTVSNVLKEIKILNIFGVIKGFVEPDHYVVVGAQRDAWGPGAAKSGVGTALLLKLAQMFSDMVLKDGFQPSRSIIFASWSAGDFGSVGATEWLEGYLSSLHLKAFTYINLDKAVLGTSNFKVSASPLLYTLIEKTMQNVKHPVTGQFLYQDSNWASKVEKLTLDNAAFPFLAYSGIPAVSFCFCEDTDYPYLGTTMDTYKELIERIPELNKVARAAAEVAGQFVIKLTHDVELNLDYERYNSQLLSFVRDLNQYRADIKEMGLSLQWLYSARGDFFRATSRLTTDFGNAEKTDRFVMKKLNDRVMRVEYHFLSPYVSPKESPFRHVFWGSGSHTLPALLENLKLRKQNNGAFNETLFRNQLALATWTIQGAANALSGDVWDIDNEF
Description: SPR, FLAG-captured TfR1, bispecific injected, 1:1 fit.

In experiment [6] the target is T2, AβpE3-40 monomer. The experiment can be described thus: SPR, antibody immobilised, monomer injected, 1:1 fit. As to the method: Single cycle kinetics with the antibodies immobilized on a CM5 chip was used to measure the binding of the antibodies to the AβpE3-40 monomer. For the measurements, 5 μg/ml of analyte antibody was immobilized on the chip. […] Regeneration of the surface between cycles was done by injecting 30 μl 3 M MgCl₂. The binding data was fitted to a 1:1 interaction model.
(§2) In all SPR experiments, 1×HBS-EP+ (Cytiva, cat. no. BR100669) was used to dilute antibodies and target antigens. Experiments were performed at 25° C.
(§3) Affinity evaluation and KD determination by surface plasmon resonance: Binding interactions between antigens and antibodies were evaluated by SPR using a Biacore 8K instrument (Cytiva) according to standard procedures.
This is another data set of the same source.

Experiment [7] deals with T3, AβpE3-42 protofibrils. Description: SPR, protofibrils immobilised, antibody injected, 1:1 fit, apparent. As to the method:
(§4) Single cycle kinetics was also used to measure binding of the antibodies to AβpE3-42 protofibrils. […] Regeneration of the surface between cycles was done by injecting 30 μl 10 mM glycine-HCl pH 1.7. The binding data was fitted to a 1:1 interaction model.
as §2, §3

Experiment [8] addresses T2, AβpE3-40 monomer. Description: inhibition ELISA, antigen titrated in solution, AβpE3-40 coat. The source holds these as a separate data set.
The target of another experiment is T5, Aβ1-40 monomer (UniProt P05067 672-711).
T5 construct: range 1-40 (Aβ numbering)
T5 sequence (P05067 672-711): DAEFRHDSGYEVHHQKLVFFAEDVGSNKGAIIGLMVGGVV
The experiment is described as above.

The target of experiment [9] is T3, AβpE3-42 protofibrils. The experiment is described as above. The source holds these as a separate data set.
Another experiment concerns the target T6, Aβ1-42 protofibrils (UniProt P05067 672-713).
T6 construct: range 1-42 (Aβ numbering); Soluble aggregates made from Aβ1-42 monomer
The experiment is described as above.

In experiment [10] the target is T3, AβpE3-42 protofibrils. Description: SPR, protofibrils immobilised, antibody injected, 1:1 fit, apparent; binding to AβpE3-42 protofibrils; KD in pM. As to the method: as §4, §2, §3
Another experiment addresses T7, AβpE3-28 monomer (UniProt P05067 674-699, pyroglutamate at position 3 (N-terminal residue)).
T7 construct: range 3-28 (Aβ numbering)
Description: inhibition ELISA, antigen titrated in solution, AβpE3-40 coat. As to the method: (§5) The humanized antibodies were incubated at a fixed concentration (0.5 μg/ml) with titrating concentrations of the different Aβ antigens. After incubation for 45 min at 900 rpm to reach equilibrium, the antibody-Aβ samples were added to a blocked and washed ELISA plate with an AβpE3-40 coat (0.5 μM). The samples were incubated on the plate for 25 min without shaking followed by washing, incubation with detection antibody, another washing step and finally incubation with alkaline phosphatase substrate.

A further experiment has as its target T8, Aβ3-28 monomer (UniProt P05067 674-699).
T8 construct: range 3-28 (Aβ numbering)
The description is as above. As to the method: as §5

Where two headings read alike, the source gives them in different places. Bounds are passed on as bounds.

T7 sequence (P05067 674-699): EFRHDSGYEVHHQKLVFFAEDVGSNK
T6 sequence (P05067 672-713): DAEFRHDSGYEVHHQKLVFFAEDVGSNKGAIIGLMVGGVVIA

B1: 26D3 (antibody, V domains shown)
VH: EVQLQQFGVELVKPGASVKISCKASGYIFTDYNMDWVKQSHGKSLEWIGDINPDYDTTSYNEKFKGKATLTVDKSSSTAYMELRSLTSEDTAVYYCARGGYSGSSYYHPMDYWGQGTSVTVSS
VL: DIVMSQSPSSLAVSVGEKITMSCKSSQSLLYSTNQKNYLAWYQQKPGQSPELLIYWASTRESGVPDRFTGSGSGTDFTLTISNVRAEDLAVYYCQQYFIYPRTFGGGTKLEIK
notes: also called mouse antibody 26D3; clone 26D3
Take B1: in experiment [1], the binding result is given as “no binding (tested: about 600 ng/ml)”.

B2: BA002 (bispecific antibody, human IgG1, kappa)
light: EIVLTQSPLSLSVTLGQSASISCRSSQSLLDSNGKTYLHWFILRPGQSPRRLIYLVSILDSGVPDRFSGSGSGTDFTLKISRVEAEDVGVYYCVQGTHFPFTFGSGTKLEIKRTVAAPSVFIFPPSDEQLKSGTASVVCLLNNFYPREAKVQWKVDNALQSGNSQESVTEQDSKDSTYSLSSTLTLSKADYEKHKVYACEVTHQGLSSPVTKSFNRGEC
heavy 1: not shown
heavy 2: EVQLVQSGAEVVKPGASVRLSCKASGYSFTGFTMNWVRQALGQGLEWMGLINPYNGVTTYNQKFKGRLTMTRDMSTRTVYMDLSSLTYEDTAVYYCTREGNWEGVYWGQGTLVTVSSASTKGPSVFPLAPSSKSTSGGTAALGCLVKDYFPEPVTVSWNSGALTSGVHTFPAVLQSSGLYSLSSVVTVPSSSLGTQTYICNVNHKPSNTKVDKKVEPKSCDKTHTCPPCPAPELLGGPSVFLFPPKPKDTLMISRTPEVTCVVVDVSHEDPEVKFNWYVDGVEVHNAKTKPREEQYNSTYRVVSVLTVLHQDWLNGKEYKCAVSNKALPAPIEKTISKAKGQPREPQVYTLPPCRDELTKNQVSLWCLVKGFYPSDIAVEWESNGQPENNYKTTPPVLDSDGSFFLYSKLTVDKSRWQQGNVFSCSVMHEALHNHYTQKSLSLSPGGGGGSGGGGSGGGGSGGGGSDIQMTQSPSSVSASVGDRVTITCKSSQSLLASTNQKNYLAWYQQKPGKAPKLLIYWASTRESGVPSRFSGSGSGTDFTLTISSLQPEDFATYYCQQYFIYPRTFGCGTKVEIKGGGGSGGGGSGGGGSGGGGSEVQLVQSGAEVKKPGSSVKVSCKASGYIFTDYNMDWVRQAPGQCLEWIGDINPDYDTTSYNEKFKGRATLTVDKSTSTAYMELSSLRSEDTAVYYCARGGYSGSSYYHPMDYWGQGTLVTVSS
A word on the IC50: it is the concentration needed to halve the response being measured. Usually koff stands for a measure of how fast the partners let go of each other. Usually kon stands for the rate constant with which the complex forms. B2: the IC50 with AβpE3-40 monomer [2] amounted to 0.8 nM. In addition, the IC50 with AβpE3-42 protofibrils [3] came to 3.2 nM. In the experiment with AβpE3-40 monomer [4], this molecule displayed a Kd of 2.38 nM, a koff of 0.000127 s⁻¹ and a kon of 53500 M⁻¹ s⁻¹. Also, in experiment [5], the Kd is 35.6 nM, the koff came to 0.0031 s⁻¹ and the kon turned out to be 87000 M⁻¹ s⁻¹.

B3: H2L7-K12V/R83T (antibody, human IgG1, kappa)
heavy: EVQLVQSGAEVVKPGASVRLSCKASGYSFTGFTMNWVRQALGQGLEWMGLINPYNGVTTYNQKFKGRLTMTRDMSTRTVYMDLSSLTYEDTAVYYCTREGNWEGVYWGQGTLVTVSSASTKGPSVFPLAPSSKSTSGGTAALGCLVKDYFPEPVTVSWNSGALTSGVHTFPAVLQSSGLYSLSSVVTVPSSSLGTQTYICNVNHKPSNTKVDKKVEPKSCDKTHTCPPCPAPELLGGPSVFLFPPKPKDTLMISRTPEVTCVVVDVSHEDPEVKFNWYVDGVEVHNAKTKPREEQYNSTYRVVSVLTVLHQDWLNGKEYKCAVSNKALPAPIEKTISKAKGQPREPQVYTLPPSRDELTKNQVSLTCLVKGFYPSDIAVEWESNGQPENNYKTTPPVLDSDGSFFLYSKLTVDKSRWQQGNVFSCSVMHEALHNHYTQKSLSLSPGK
light: B2 light
notes: VH variant of H2L7; VL and constant domains identical to H2L7
On to B3, for which the figures for the Kd in the experiment with AβpE3-40 monomer [6] and with AβpE3-42 protofibrils [10] were 2.2 nM and 0.2 nM, respectively. In addition, the koff with AβpE3-40 monomer [6] was found to be 0.00012 s⁻¹; in the experiment with AβpE3-42 protofibrils [7], 1.62e-05 s⁻¹. In addition, the association rate constant (kon) turned out to be 56200 M⁻¹ s⁻¹ with AβpE3-40 monomer [6] and 81100 M⁻¹ s⁻¹ with AβpE3-42 protofibrils [7]. Also, the 50% inhibitory concentration (IC50) was 2.27 nM in the experiment with AβpE3-40 monomer [8]; more than 500 nM with Aβ1-40 monomer; 3.71 nM with AβpE3-42 protofibrils [9]; more than 132 nM with Aβ1-42 protofibrils; 5 nM with AβpE3-28 monomer; 2260 nM with Aβ3-28 monomer.

Values taken from US20250388664A1 (BIOARCTIC, published 2025).
